T1: EGFR L858R peptide on HLA-A*11:01 (human)
T1 peptide: KITDFGRAK

T2: EGFR wild type (L858) peptide on HLA-A*11:01 (human)
T2 peptide: KITDFGLAK

T3: EGFR wild type (L858) peptide on HLA-A*11:01 (human)
T3 peptide: VKITDFGLAK

T4: EGFR wild type (L858) peptide on HLA-A*11:01 (human)
T4 peptide: KITDFGLAKL

T5: EGFR L858R peptide on HLA-A*11:01 (human)
T5 peptide: KITDFGRAKL

B1: 0013-TCR1 (TCR, V domains shown)
Valpha: QKEVEQNSGPLSVPEGAIASLNCTYSDRGSQSFFWYRQYSGKSPELIMSIYSNGDKEDGRFTAQLNKASQYVSLLIRDSQPSDSATYLCAVYNNNDMRFGAGTRLTVKP
Vbeta: GVSQTPSNKVTEKGKYVELRCDPISGHTALYWYRQSLGQGPEFLIYFQGTGAADDSGLPNDRFFAVRPEGSVSTLKIQRTERGDSAVYLCASSFLAGHLYTGELFFGEGSRLTVL
B2: 0013-TCR102 (TCR, V domains shown)
Valpha: VGLHLPTLSVQEGDNSIINCAYSNSASDYFIWYKQESGKGPQFIIDIRSNMDKRQGQRVTVLLNKTVKHLSLQIAATQPGDSAVYFCAETPDKLIFGTGTRLQVFP
Vbeta: DTGVSQDPRHKITKRGQNVTFRCDPISEHNRLYWYRQTLGQGPEFLTYFQNEAQLEKSRLLSDRFSAERPKGSFSTLEIQRTEQGDSAMYLCASSGGGDSPLHFGNGTRLTVT
B3: 0013-TCR319 (TCR, V domains shown)
Valpha: QSVTQPDIHITVSEGASLELRCNYSYGATPYLFWYVQSPGQGLQLLLKYFSGDTLVQGIKGFEAEFKRSQSSFNLRKPSVHWSDAAEYFCAVGGGGADGLTFGKGTHLIIQP
Vbeta: DVKVTQSSRYLVKRTGEKVFLECVQDMDHENMFWYRQDPGLGLRLIYFSYDVKMKEKGDIPEGYSVSREKKERFSLILESASTNQTSMYLCATLWYRQGADGYTFGSGTRLTVV

Experiments:
[1] = target: T1, EGFR L858R peptide on HLA-A*11:01; assay: killing
[2] = target: T2, EGFR wild type (L858) peptide on …; assay: killing
[3] = target: T3, EGFR wild type (L858) peptide on …; assay: activation reporter or marker
[4] = target: T4, EGFR wild type (L858) peptide on …; assay: activation reporter or marker
[5] = target: T1, EGFR L858R peptide on HLA-A*11:01; assay: activation reporter or marker
[6] = target: T2, EGFR wild type (L858) peptide on …; assay: activation reporter or marker
[7] = target: T5, EGFR L858R peptide on HLA-A*11:01; assay: activation reporter or marker

| Binder | binding result [1] | binding result [2] | binding result [3] | binding result [4] | binding result [5] | binding result [6] | binding result [7] |
| --- | --- | --- | --- | --- | --- | --- | --- |
| B1 | recognises | no recognition | no recognition | no recognition | – | – | – |
| B2 | – | – | no recognition | no recognition | recognises | no recognition | no recognition |
| B3 | recognises | no recognition | no recognition | no recognition | – | – | no recognition |

Reference: patent US20260273054A1 (published 2026)
